Consider 2 molecules from paper PMC9482650, “Quantitative fragmentomics allow affinity mapping of interactomes” (Nature Communications, 2022).

Some targets named below: FRMPD4, Q14CM0; Inadl_5, Q8NI35; PDZRN4_1, Q6ZMN7; FRMPD2_1, Q68DX3; MAGI1_1, Q96QZ7; PICK1, Q9NRD5; MAGI3_2, Q5TCQ9; Inadl_10, Q8NI35; NHERF4_1, Q86UT5-2; FRMPD2_3, Q68DX3; IL16_3, Q14005; SCRIB_2, Q14160; Inadl_8, Q8NI35; DLG4_2, P78352; HTRA2, O43464; TJP2_1, Q9UDY2; LNX1_1, Q8TBB1; FRMPD3, Q5JV73.
Common to all, as to assay: holdup assay
What all share (parameters): key: below the threshold = too weak to quantify, mostly under pKd 3.1 to 4
Common to all, as to conditions: plain residues with an end cap or a label only (N-terminal biotin on a linker: ado-ado)

A further experiment deals with T1, SYNJ2BP, P57105.
T1 sequence (P57105 8-110, limits assumed, looked up): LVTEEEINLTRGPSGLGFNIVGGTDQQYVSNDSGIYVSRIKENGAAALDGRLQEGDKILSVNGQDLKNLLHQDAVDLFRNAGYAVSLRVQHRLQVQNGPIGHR

The target in the next experiment is T2, LIN7C, Q9NUP9.
T2 sequence (Q9NUP9 88-185, limits assumed, looked up): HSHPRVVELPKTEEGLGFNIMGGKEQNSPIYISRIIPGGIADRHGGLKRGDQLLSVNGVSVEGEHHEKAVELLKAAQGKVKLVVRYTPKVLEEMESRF

The next experiment has as its target T3, RHPN1, Q8TCX5.
T3 sequence (Q8TCX5 508-602, limits assumed, looked up): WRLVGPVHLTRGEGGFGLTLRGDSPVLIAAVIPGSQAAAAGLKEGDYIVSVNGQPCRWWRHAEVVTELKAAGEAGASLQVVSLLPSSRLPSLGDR

The target of the next experiment is T4, TJP3_3, O95049.
T4 sequence (O95049 375-456, limits assumed, looked up): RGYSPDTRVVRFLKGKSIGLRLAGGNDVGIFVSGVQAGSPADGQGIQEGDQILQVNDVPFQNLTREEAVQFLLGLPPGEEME

The target in a further experiment is T5, SHANK1, Q9Y566.
T5 sequence (Q9Y566 658-767, limits assumed, looked up): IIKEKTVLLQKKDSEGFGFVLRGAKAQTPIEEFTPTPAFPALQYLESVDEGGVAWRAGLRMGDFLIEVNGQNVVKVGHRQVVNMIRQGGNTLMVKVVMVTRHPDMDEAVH

For another experiment, the target named is T6, MPDZ_12, O75970.
T6 sequence (O75970 1857-1958, limits assumed, looked up): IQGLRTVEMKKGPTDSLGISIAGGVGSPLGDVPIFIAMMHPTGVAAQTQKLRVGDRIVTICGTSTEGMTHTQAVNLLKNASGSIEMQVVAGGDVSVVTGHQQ

The next experiment concerns the target T7, LRRC7, Q96NW7.
T7 sequence (Q96NW7 1440-1537, limits assumed, looked up): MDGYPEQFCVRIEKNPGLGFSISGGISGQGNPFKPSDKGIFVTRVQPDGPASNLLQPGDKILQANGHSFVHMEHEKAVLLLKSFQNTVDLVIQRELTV

One may read the pKd as the negative decadic logarithm of the Kd, by convention in mol/L.

MAGI1_1, Q96QZ7, sequence (Q96QZ7 1-106): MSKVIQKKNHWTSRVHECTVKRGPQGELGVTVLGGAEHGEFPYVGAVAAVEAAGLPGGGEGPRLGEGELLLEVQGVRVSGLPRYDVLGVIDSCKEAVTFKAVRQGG
Inadl_10, Q8NI35, sequence (Q8NI35 1673-1763): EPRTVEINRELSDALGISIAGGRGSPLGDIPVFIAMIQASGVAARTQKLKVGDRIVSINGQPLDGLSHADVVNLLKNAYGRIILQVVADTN
IL16_3, Q14005, sequence (Q14005 1107-1207): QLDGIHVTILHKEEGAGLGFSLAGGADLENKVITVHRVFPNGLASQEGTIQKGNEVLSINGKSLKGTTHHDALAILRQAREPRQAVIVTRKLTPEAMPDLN
PDZRN4_1, Q6ZMN7, sequence (Q6ZMN7 213-318): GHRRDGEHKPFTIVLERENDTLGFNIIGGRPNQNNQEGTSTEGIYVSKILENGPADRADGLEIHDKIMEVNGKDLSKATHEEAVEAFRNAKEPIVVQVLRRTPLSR
FRMPD4, Q14CM0, sequence (Q14CM0 67-160): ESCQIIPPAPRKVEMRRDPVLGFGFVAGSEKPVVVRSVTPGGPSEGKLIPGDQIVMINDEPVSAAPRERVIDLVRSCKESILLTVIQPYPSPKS
Inadl_5, Q8NI35, sequence (Q8NI35 673-780): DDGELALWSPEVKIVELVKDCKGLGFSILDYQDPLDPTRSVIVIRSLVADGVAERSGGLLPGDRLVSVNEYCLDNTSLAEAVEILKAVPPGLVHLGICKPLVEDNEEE
FRMPD2_3, Q68DX3, sequence (Q68DX3 1073-1166): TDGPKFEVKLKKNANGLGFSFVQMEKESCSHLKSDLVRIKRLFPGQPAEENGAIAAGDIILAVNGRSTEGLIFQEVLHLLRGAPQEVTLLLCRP
NHERF4_1, Q86UT5-2, sequence (Q86UT5 other isoform, or with tags, fused parts or gaps): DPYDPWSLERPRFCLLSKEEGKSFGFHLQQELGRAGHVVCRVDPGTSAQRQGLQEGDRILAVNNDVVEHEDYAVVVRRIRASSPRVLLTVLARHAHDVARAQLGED
MAGI3_2, Q5TCQ9, sequence (Q5TCQ9 398-503): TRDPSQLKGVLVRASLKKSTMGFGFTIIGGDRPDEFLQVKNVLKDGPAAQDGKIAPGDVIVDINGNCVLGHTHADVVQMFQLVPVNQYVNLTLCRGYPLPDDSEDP
PICK1, Q9NRD5, sequence (Q9NRD5 17-115): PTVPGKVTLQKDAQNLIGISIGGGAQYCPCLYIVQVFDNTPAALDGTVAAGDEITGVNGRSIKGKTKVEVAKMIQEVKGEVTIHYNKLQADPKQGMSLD
HTRA2, O43464, sequence (O43464 355-458): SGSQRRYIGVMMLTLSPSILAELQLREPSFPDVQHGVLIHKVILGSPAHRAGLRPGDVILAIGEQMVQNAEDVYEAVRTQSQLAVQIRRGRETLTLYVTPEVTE
Inadl_8, Q8NI35, sequence (Q8NI35 1425-1530): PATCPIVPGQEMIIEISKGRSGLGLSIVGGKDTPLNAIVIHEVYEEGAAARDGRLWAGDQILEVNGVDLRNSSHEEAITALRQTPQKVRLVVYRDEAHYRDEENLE
SCRIB_2, Q14160, sequence (Q14160 857-960): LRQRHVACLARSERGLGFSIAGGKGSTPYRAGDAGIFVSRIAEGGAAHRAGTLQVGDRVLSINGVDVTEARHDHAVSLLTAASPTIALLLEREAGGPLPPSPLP
FRMPD3, Q5JV73, sequence (Q5JV73 12-100): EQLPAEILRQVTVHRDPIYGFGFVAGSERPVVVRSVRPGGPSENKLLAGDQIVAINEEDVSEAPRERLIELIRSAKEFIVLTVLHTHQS
FRMPD2_1, Q68DX3, sequence (Q68DX3 770-861): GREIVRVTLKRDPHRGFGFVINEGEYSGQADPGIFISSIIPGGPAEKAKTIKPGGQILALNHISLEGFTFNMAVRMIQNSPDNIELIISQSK
LNX1_1, Q8TBB1, sequence (Q8TBB1 261-371): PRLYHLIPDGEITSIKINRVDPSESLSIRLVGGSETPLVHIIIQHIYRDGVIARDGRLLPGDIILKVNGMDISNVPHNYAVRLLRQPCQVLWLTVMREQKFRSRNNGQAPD
DLG4_2, P78352, sequence (P78352 155-259): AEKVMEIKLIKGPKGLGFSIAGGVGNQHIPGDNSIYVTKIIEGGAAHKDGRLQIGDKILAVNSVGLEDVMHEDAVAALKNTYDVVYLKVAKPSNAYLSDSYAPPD
TJP2_1, Q9UDY2, sequence (Q9UDY2 24-128): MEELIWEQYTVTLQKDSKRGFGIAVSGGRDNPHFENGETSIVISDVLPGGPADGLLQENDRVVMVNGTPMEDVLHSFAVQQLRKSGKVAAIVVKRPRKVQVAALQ

In the case of KSRVAFFEEL [NF2, P35240;P35240-1], the pKd result with SYNJ2BP, P57105 was “below the threshold”; with FRMPD4, Q14CM0 it was 4.17; with Inadl_5, Q8NI35 it was “below the threshold”; with LIN7C, Q9NUP9 it was “below the threshold”; in the experiment with PDZRN4_1, Q6ZMN7 it was “below the threshold”; with RHPN1, Q8TCX5, “below the threshold”. Besides, the negative logarithm of the Kd (pKd) entry in the experiment with TJP3_3, O95049 is reported as “below the threshold”; with FRMPD2_1, Q68DX3, “below the threshold”; in the experiment with SHANK1, Q9Y566 it was “below the threshold”; with MAGI1_1, Q96QZ7, “below the threshold”; with PICK1, Q9NRD5, “below the threshold”; with MAGI3_2, Q5TCQ9, “below the threshold”. Besides, the negative logarithm of the Kd (pKd) result was “below the threshold” with Inadl_10, Q8NI35; “below the threshold” with MPDZ_12, O75970; 4.31 with NHERF4_1, Q86UT5-2; “below the threshold” in the experiment with FRMPD2_3, Q68DX3; “below the threshold” with IL16_3, Q14005; “below the threshold” with SCRIB_2, Q14160. For the same molecule, in the experiment with Inadl_8, Q8NI35, the pKd result is given as “below the threshold”.
On to KRPEMTSSSV [MUC3A, MUC3B, Q02505;Q9H195], for which the negative-log Kd (pKd) was 4.15 with DLG4_2, P78352; 5.02 with SYNJ2BP, P57105; “below the threshold” with FRMPD4, Q14CM0; “below the threshold” with HTRA2, O43464; “below the threshold” in the experiment with Inadl_5, Q8NI35; “below the threshold” with TJP2_1, Q9UDY2. Moreover, the pKd result with PDZRN4_1, Q6ZMN7 is “below the threshold”; with RHPN1, Q8TCX5, 3.84; in the experiment with TJP3_3, O95049, “below the threshold”; in the experiment with SHANK1, Q9Y566, 3.92; in the experiment with MAGI1_1, Q96QZ7, “below the threshold”; with LNX1_1, Q8TBB1 it was 1.88. Further, the pKd result was “below the threshold” in the experiment with FRMPD3, Q5JV73; 3.86 with MAGI3_2, Q5TCQ9; “below the threshold” with Inadl_10, Q8NI35; 3.58 with NHERF4_1, Q86UT5-2; “below the threshold” in the experiment with FRMPD2_3, Q68DX3; “below the threshold” in the experiment with IL16_3, Q14005. For the same molecule, the pKd entry with LRRC7, Q96NW7 is on record as “below the threshold”.
